From PMC11206218 (Science Advances, 2020) come the findings set out here.

The assay deals with T1, S. cerevisiae Ggc1(C222S) with C-terminal His6-tag (S. cerevisiae, UniProt P38988 1-300, C222S).
T1 sequence (looked up): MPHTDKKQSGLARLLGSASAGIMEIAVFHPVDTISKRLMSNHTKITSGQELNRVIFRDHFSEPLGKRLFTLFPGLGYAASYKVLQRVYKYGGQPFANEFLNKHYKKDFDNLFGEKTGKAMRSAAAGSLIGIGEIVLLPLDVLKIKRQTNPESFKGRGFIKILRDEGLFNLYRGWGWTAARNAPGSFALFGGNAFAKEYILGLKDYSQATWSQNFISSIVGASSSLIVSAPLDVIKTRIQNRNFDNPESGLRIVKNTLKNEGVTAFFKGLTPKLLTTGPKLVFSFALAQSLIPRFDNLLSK
Put plainly: pull-down.

B1: TIM8·13(Tim8_(K30F,S36L)) mutant chaperone complex (complex, S. cerevisiae)
chain 1: MSSLSTSDLASLDDTSKKEIATFLEGENSFQKVQMLIHQFTNICFKKCVESVNDSNLSSQEEQCLSNCVNRFLDTNIRIVNGLQNTR
chain 2: GGLSSIFGGGAPSQQKEAATTAKTTPNPIAKELKNQIAQELAVANATELVNKISENCFEKCLTSPYATRNDACIDQCLAKYMRSWNVISKAYISRIQNASASGEI
Consider B1, for which the binding result is listed as “binds”.
